Measured values taken from patent US20050008648A1.

Target: CD33 (UniProt P20138)
Test: cell-based or functional assay

CD33, sequence (P20138 18-364 limits assumed): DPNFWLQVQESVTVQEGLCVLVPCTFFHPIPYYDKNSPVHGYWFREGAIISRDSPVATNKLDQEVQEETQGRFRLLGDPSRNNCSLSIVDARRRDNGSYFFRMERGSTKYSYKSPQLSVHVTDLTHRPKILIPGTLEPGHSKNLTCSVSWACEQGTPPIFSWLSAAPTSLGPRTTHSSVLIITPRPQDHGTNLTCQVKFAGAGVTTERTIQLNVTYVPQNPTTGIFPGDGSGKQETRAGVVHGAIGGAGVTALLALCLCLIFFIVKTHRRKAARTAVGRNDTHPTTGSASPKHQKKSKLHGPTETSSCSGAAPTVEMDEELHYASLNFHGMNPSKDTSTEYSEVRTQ
HuM195-dCK conjugate, sequence (B2R8V6 whole entry): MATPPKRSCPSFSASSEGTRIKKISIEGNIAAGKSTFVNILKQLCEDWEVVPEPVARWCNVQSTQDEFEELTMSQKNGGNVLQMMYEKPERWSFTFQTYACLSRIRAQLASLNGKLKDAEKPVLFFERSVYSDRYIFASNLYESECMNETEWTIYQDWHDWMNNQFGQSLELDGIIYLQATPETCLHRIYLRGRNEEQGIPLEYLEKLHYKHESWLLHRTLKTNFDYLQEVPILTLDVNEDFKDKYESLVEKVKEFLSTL

## HuM195-dCK conjugate
  apoptosis assay on NB4 cells, conjugate with AraC 250 nM: 65%
  cell death of HL60 cells (Annexin V and propidium iodide staining), conjugate in combination with AraC 1 µM: 70%
